The values below come from article PMC5262459.

For the assay, the target named is nucleosome with full-length recombinant Xenopus laevis histones acetylated by the lysine acetyltrans (X. laevis) (UniProt P62799). The assay is described as follows: single-particle negative-staining TEM in a DNA origami force spectrometer.

As to “nucleosome with full-length recombinant Xenopus laevis histones acetylated by the lysine acetyltrans (from UniProt P62799 1-103) (complex)”, the depth of the minimum of the nucleosome pair potential was -0.6 kcal/mol.
